Assay results taken from PMC12017989, “Carbohydrate deacetylase, a key enzyme in oxidative chitin degradation, is evolutionarily linked to amino acid deacetylase [drawing 1]” (The Journal of Biological Chemistry, 2025).

T1: PpOngB (Pseudoalteromonas prydzensis, UniProt Z9WEX2YQL1, D368A)
T1 construct: pET-22b, His tag; E. coli BL21(DE3); residues 7-482 seen in crystal; one Zn
T1 sequence (Z9WEX2YQL1 1-489 D368A): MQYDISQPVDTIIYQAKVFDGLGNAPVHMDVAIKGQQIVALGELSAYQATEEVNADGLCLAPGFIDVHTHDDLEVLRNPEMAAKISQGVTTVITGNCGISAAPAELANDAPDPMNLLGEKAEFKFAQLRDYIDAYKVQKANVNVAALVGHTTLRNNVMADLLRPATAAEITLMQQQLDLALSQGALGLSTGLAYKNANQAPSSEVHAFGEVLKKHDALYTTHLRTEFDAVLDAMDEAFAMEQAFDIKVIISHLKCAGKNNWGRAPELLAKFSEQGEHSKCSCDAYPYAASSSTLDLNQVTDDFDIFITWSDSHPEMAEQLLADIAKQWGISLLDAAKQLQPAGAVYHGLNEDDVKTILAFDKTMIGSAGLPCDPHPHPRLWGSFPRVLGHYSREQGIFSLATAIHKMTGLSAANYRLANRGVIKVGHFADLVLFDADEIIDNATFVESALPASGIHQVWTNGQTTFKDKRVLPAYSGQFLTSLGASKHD

T2: AfDam (Alcaligenes faecalis, UniProt Q9AGH8)
T2 sequence (Q9AGH8 1-484): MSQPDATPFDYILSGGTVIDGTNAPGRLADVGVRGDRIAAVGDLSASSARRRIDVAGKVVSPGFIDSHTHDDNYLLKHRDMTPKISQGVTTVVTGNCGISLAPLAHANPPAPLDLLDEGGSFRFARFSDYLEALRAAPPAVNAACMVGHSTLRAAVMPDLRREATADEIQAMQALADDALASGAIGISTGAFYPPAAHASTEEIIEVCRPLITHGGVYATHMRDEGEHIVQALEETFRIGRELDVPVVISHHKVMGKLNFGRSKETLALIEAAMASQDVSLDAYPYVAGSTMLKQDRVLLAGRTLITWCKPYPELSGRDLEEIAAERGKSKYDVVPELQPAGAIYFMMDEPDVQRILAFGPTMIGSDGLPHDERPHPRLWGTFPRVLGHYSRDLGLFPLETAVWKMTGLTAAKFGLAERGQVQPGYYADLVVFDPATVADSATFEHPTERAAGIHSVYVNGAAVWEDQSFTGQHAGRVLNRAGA


How the values were obtained:
[1] = tested on: CC(=O)N[C@@H](C(=O)O)[C@@H](O)[C@H](O)[C@H](O)CO; test: purified protein; conditions: 10 mM Bis-Tris pH 7.5, 30 °C, 2-120 mM substrate, Zn enzyme
Text: ninhydrin assay of primary amine, Michaelis-Menten fit on PaOngB

[2] = target: T3, BbDam (Bordetella bronchiseptica, UniProt A0A0H3LXD5); test: deacetylase activity assay; type: biochemical; conditions: 10 mM substrate, 50 mM Hepes pH 8.0, 30 °C
T3 construct: gene BB3285

[3] = target: T1, PpOngB; test: X-ray crystal structure, […] Å; type: binding; conditions: inactive mutant cocrystallised; active site, open-chain aldonic acid coordinating zinc
[4] = target: T2, AfDam; test: deacetylase activity assay; type: biochemical; conditions: 10 mM substrate, 10 mM Bis-Tris pH 7.0, 40 °C
[5] = substrate: CC(=O)N[C@@H](C(=O)O)[C@@H](O)[C@H](O)[C@H](O)CO; test: ninhydrin assay of primary amine, Michaelis-Menten fit; type: biochemical, Pseudoalteromonas maricaloris; conditions: 10 mM Bis-Tris pH 7.5, 30 °C, 2-120 mM substrate, Zn enzyme
Text: ninhydrin assay of primary amine, Michaelis-Menten fit on PfOngB

[6] = substrate: CC(=O)N[C@@H](C(=O)O)[C@@H](O)[C@H](O)[C@H](O)CO; test: as above; type: biochemical, Pseudoalteromonas prydzensis; conditions: 10 mM Bis-Tris pH 7.5, 30 °C, 2-120 mM substrate, Zn enzyme
Text: ninhydrin assay of primary amine, Michaelis-Menten fit on PpOngB

T3 sequence (A0A0H3LXD5 entry or part of it): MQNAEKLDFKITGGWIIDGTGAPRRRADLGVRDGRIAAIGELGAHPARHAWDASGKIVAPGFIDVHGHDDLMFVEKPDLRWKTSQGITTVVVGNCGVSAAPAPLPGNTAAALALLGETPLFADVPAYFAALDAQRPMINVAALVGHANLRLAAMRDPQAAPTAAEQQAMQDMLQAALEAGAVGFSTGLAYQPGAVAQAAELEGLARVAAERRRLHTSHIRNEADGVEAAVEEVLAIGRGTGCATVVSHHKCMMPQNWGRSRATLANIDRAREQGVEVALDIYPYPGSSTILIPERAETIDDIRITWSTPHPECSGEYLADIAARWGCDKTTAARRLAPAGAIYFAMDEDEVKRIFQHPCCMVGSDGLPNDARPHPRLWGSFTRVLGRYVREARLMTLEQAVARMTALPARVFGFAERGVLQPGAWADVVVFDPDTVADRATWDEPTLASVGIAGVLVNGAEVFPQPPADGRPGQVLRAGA

Molecule	Km [6] [mM]	Vmax [6] [µmol/min/mg]	kcat [6] [s⁻¹]	also measured
PaOngB (Pseudoalteromonas arabiensis)				Km [1]: 9.1 ± 0.8 mM; Vmax [1]: 6.3 µmol/min/mg; kcat [1]: 5.5 ± 0.3 s⁻¹; kcat/Km [1]: 600 M⁻¹ s⁻¹
CC(=O)N[C@H](CCC(=O)O)C(=O)O [N-acetyl-D-glutamate]				deacetylase activity assay [2]: enzymatic activities of BbDam and its mutants
CC(=O)N[C@@H](C(=O)O)[C@@H](O)[C@H](O)[C@H](O)CO [GlcNAc1A, 2-(acetylamino)-2-deoxy-D-gluconic acid]				X-ray crystal structure, 2.29 Å [3]: crystal structure of PpOngB in complex with GlcNAc1A (the PpOngB-GlcNAc1A complex)
CSCC[C@@H](NC(C)=O)C(=O)O [N-acetyl-D-methionine]				deacetylase activity assay [4]: enzymatic activities of AfDam and its mutants
PfOngB (Pseudoalteromonas maricaloris) (protein, recombinant, cloned like PpOngB (pET-22b, His tag)) MLSSSPYVDTLIQGATVYFEPDSEAQVVDVAISKDKIVALGNCSHLQALQCIDATGLVLAPGFIDVHTHDDLEVLRGPYMLSKVSQGVTTVIAGNCGISAVPYCADQAPLDPINLLGEQSEFAYRELQDYQHAFSKAAPSVNLATLVGHTTLRAQVMTDLSQAANAQELEQMKTLLHQAMAQGAIGFSTGLAYYNAKGASQAEVNALAEVVTPFDGIYTTHLRTEFQGVIRAMDEAFATAEHAKLPLVISHIKCAGRENWGRAPEVLAHFELHRKTHPVSCDCYPYAASSSTLDLNQVTEETDIFITWSESHPELAQQSLANIATQWQVSQRDAAKRLQPAGAVYHCMLEDDVQRFVSYEHSMVGSDGLPCDPHPHPRLWGTFPRVLGHYCREQQSLPLALAIHKMTALPAARFKLRQRGNIQIGYFADLVLFDPNRVLDQASYSNPKQLASGIVKVWVNGKLSYVEGANADTIVDFGRAGRFLTRQN				Km [5]: 17.2 ± 1.0 mM; Vmax [5]: 13.4 µmol/min/mg; kcat [5]: 11.9 ± 0.7 s⁻¹; kcat/Km [5]: 700 M⁻¹ s⁻¹
PpOngB (Pseudoalteromonas prydzensis) (protein, pET-22b, His tag; E. coli BL21(DE3); residues 7-482 seen in crystal; one Zn) MQYDISQPVDTIIYQAKVFDGLGNAPVHMDVAIKGQQIVALGELSAYQATEEVNADGLCLAPGFIDVHTHDDLEVLRNPEMAAKISQGVTTVITGNCGISAAPAELANDAPDPMNLLGEKAEFKFAQLRDYIDAYKVQKANVNVAALVGHTTLRNNVMADLLRPATAAEITLMQQQLDLALSQGALGLSTGLAYKNANQAPSSEVHAFGEVLKKHDALYTTHLRTEFDAVLDAMDEAFAMEQAFDIKVIISHLKCAGKNNWGRAPELLAKFSEQGEHSKCSCDAYPYAASSSTLDLNQVTDDFDIFITWSDSHPEMAEQLLADIAKQWGISLLDAAKQLQPAGAVYHGLNEDDVKTILAFDKTMIGSDGLPCDPHPHPRLWGSFPRVLGHYSREQGIFSLATAIHKMTGLSAANYRLANRGVIKVGHFADLVLFDADEIIDNATFVESALPASGIHQVWTNGQTTFKDKRVLPAYSGQFLTSLGASKHD	9.8 ± 0.8	17.4	15.4 ± 1.3	kcat/Km [6]: 1600 M⁻¹ s⁻¹
PpOngB (Pseudoalteromonas prydzensis; S292T) (protein, pET-22b, His tag; E. coli BL21(DE3); residues 7-482 seen in crystal; one Zn) MQYDISQPVDTIIYQAKVFDGLGNAPVHMDVAIKGQQIVALGELSAYQATEEVNADGLCLAPGFIDVHTHDDLEVLRNPEMAAKISQGVTTVITGNCGISAAPAELANDAPDPMNLLGEKAEFKFAQLRDYIDAYKVQKANVNVAALVGHTTLRNNVMADLLRPATAAEITLMQQQLDLALSQGALGLSTGLAYKNANQAPSSEVHAFGEVLKKHDALYTTHLRTEFDAVLDAMDEAFAMEQAFDIKVIISHLKCAGKNNWGRAPELLAKFSEQGEHSKCSCDAYPYAASSTTLDLNQVTDDFDIFITWSDSHPEMAEQLLADIAKQWGISLLDAAKQLQPAGAVYHGLNEDDVKTILAFDKTMIGSDGLPCDPHPHPRLWGSFPRVLGHYSREQGIFSLATAIHKMTGLSAANYRLANRGVIKVGHFADLVLFDADEIIDNATFVESALPASGIHQVWTNGQTTFKDKRVLPAYSGQFLTSLGASKHD	54.2 ± 1.8	1.3	1.1 ± 0.1	
PpOngB (Pseudoalteromonas prydzensis; Q298A) (protein, pET-22b, His tag; E. coli BL21(DE3); residues 7-482 seen in crystal; one Zn) MQYDISQPVDTIIYQAKVFDGLGNAPVHMDVAIKGQQIVALGELSAYQATEEVNADGLCLAPGFIDVHTHDDLEVLRNPEMAAKISQGVTTVITGNCGISAAPAELANDAPDPMNLLGEKAEFKFAQLRDYIDAYKVQKANVNVAALVGHTTLRNNVMADLLRPATAAEITLMQQQLDLALSQGALGLSTGLAYKNANQAPSSEVHAFGEVLKKHDALYTTHLRTEFDAVLDAMDEAFAMEQAFDIKVIISHLKCAGKNNWGRAPELLAKFSEQGEHSKCSCDAYPYAASSSTLDLNAVTDDFDIFITWSDSHPEMAEQLLADIAKQWGISLLDAAKQLQPAGAVYHGLNEDDVKTILAFDKTMIGSDGLPCDPHPHPRLWGSFPRVLGHYSREQGIFSLATAIHKMTGLSAANYRLANRGVIKVGHFADLVLFDADEIIDNATFVESALPASGIHQVWTNGQTTFKDKRVLPAYSGQFLTSLGASKHD	59.7 ± 5.0	7.7	6.8 ± 0.6	
PpOngB (Pseudoalteromonas prydzensis; Q298N) (protein, pET-22b, His tag; E. coli BL21(DE3); residues 7-482 seen in crystal; one Zn) MQYDISQPVDTIIYQAKVFDGLGNAPVHMDVAIKGQQIVALGELSAYQATEEVNADGLCLAPGFIDVHTHDDLEVLRNPEMAAKISQGVTTVITGNCGISAAPAELANDAPDPMNLLGEKAEFKFAQLRDYIDAYKVQKANVNVAALVGHTTLRNNVMADLLRPATAAEITLMQQQLDLALSQGALGLSTGLAYKNANQAPSSEVHAFGEVLKKHDALYTTHLRTEFDAVLDAMDEAFAMEQAFDIKVIISHLKCAGKNNWGRAPELLAKFSEQGEHSKCSCDAYPYAASSSTLDLNNVTDDFDIFITWSDSHPEMAEQLLADIAKQWGISLLDAAKQLQPAGAVYHGLNEDDVKTILAFDKTMIGSDGLPCDPHPHPRLWGSFPRVLGHYSREQGIFSLATAIHKMTGLSAANYRLANRGVIKVGHFADLVLFDADEIIDNATFVESALPASGIHQVWTNGQTTFKDKRVLPAYSGQFLTSLGASKHD	53.4 ± 2.5	9.4	8.3 ± 0.3	
